The target of assay [1] is biotinylated hBLyS-ECD (human) (UniProt Q9Y275). The assay is described as follows: BAFF R-coated ELISA, biotinylated hBLyS-ECD bound in presence of control antibody 0.8 nM. On the technique in general: An ELISA detects its analyte on a solid surface through an enzyme-linked reagent.
Assay [2] shares this target. In words: ELISA on captured biotinylated hBLyS-ECD; control antibody 13.3 nM.
For assay [3] the target is unchanged. The assay is described as follows: BAFF R-coated ELISA, biotinylated hBLyS-ECD bound in presence of control antibody 0 nM.
Assay [4] shares this target. The assay is described as follows: BAFF R-coated ELISA, biotinylated hBLyS-ECD bound in presence of control antibody 20 nM.
Assay [5] has the same target. In words: BAFF R-coated ELISA, biotinylated hBLyS-ECD bound in presence of control antibody 0.16 nM.
For assay [6] the target is unchanged. The assay is described as follows: ELISA on captured biotinylated hBLyS-ECD; control antibody 0.107 nM.
Assay [7] deals with His-tagged extracellular domain of human BLyS protein (hBLyS-ECD), Ala134-Leu285 (human) (UniProt Q9Y275). In words: cell-based or functional assay.
For assay [8], the target named is hBLyS-ECD (His-tagged extracellular domain of human BLyS protein, Ala134-Leu285) (human) (UniProt Q9Y275). In words: cell-based or functional assay.
Chain of hBLyS-ECD (His-tagged extracellular domain of human BLyS protein, Ala134-Leu285) (human) (Q9Y275 134-285): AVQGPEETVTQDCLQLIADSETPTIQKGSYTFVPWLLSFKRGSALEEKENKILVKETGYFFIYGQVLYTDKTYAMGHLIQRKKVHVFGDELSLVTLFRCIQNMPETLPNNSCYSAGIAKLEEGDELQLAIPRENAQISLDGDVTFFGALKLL

Chain of biotinylated hBLyS-ECD (human) (Q9Y275 134-285): as above

For the substance hIgG Control (antibody), the OD450 nm in assay [1] was 1.83 OD450 nm. This substance returned an OD450 nm in assay [2] of 0.072 OD450 nm. In addition, the OD450 nm in assay [3] turned out to be 2 OD450 nm. The OD450 nm in assay [4] was 1.91 OD450 nm. For the same substance, in assay [5], the OD450 nm amounted to 1.79 OD450 nm. Besides, the OD450 nm in assay [6] worked out at 0.0662 OD450 nm. In assay [7], this substance showed an IgA Conc. in mouse serum, mice given hBLyS-ECD and antibody (in vivo neutralisation) of 387 µg/mL; a Proportion of B lymphocytes in splenocytes (%), mice given hBLyS-ECD and antibody (in vivo neutralisation) of 39.7%; a mouse B lymphocyte proliferation stimulated by hBLyS-ECD (viable cell signal) at 0 nM antibody (OD450 nm (as headed)) of 3570; a mouse B lymphocyte proliferation stimulated by hBLyS-ECD (viable cell signal) at 0.000256 nM antibody of 3970. In addition, in assay [7], the mouse B lymphocyte proliferation stimulated by hBLyS-ECD (viable cell signal) at 0.00128 nM antibody (OD450 nm (as headed)) stood at 3860, the mouse B lymphocyte proliferation stimulated by hBLyS-ECD (viable cell signal) at 0.0064 nM antibody (OD450 nm (as headed)) amounted to 3730, the mouse B lymphocyte proliferation stimulated by hBLyS-ECD (viable cell signal) at 0.032 nM antibody (OD450 nm (as headed)) came out at 3920 and the mouse B lymphocyte proliferation stimulated by hBLyS-ECD (viable cell signal) at 0.16 nM antibody (OD450 nm (as headed)) came to 4200. Further, in assay [7], the mouse B lymphocyte proliferation stimulated by hBLyS-ECD (viable cell signal) at 0.8 nM antibody (OD450 nm (as headed)) worked out at 4290, the mouse B lymphocyte proliferation stimulated by hBLyS-ECD (viable cell signal) at 4 nM antibody (OD450 nm (as headed)) was found to be 4430, the mouse B lymphocyte proliferation stimulated by hBLyS-ECD (viable cell signal) at 20 nM antibody (OD450 nm (as headed)) was determined as 4700 and the mouse B lymphocyte proliferation stimulated by hBLyS-ECD (viable cell signal) at 100 nM antibody (OD450 nm (as headed)) stood at 3720.
Consider mIgG Control (antibody), for which, in assay [8], the mouse B lymphocyte proliferation (OD450 nm), antibody 0 nM turned out to be 2730 OD450 nm; the mouse B lymphocyte proliferation (OD450 nm), antibody 0.000256 nM was determined as 3130 OD450 nm; the mouse B lymphocyte proliferation (OD450 nm), antibody 0.00128 nM stood at 3880 OD450 nm; the mouse B lymphocyte proliferation (OD450 nm), antibody 0.0064 nM came out at 3700 OD450 nm. In assay [8], this substance returned a mouse B lymphocyte proliferation (OD450 nm), antibody 0.032 nM of 4010 OD450 nm; a mouse B lymphocyte proliferation (OD450 nm), antibody 0.16 nM of 4020 OD450 nm; a mouse B lymphocyte proliferation (OD450 nm), antibody 0.8 nM of 3950 OD450 nm; a mouse B lymphocyte proliferation (OD450 nm), antibody 4 nM of 3100 OD450 nm. In assay [8], this substance gave a mouse B lymphocyte proliferation (OD450 nm), antibody 20 nM of 2590 OD450 nm and a mouse B lymphocyte proliferation (OD450 nm), antibody 100 nM of 3400 OD450 nm.
